Data taken from publication PMC12643061, “Structural dynamics of the plant hormone receptor ETR1 in a native‐like membrane environment” (Febs Letters, 2025).

Target: the molecule itself
Experiment: SEC; ETR1 in DMPC/MSP1E3D1 nanodiscs; Superose 6 Increase 10/300 GL, 50 mM Tris-HCl pH 8.0, 200 mM NaCl, 0.3 mL/min; column calibrated with protein standards; elution volume 16.77 mL, ~450 kDa

B1: ethylene receptor 1 (ETR1) from Arabidopsis thaliana, full-length, with N-terminal 10xHis-tag (receptor, UniProt P49333 1-738, looked up)
chain: MEVCNCIEPQWPADELLMKYQYISDFFIAIAYFSIPLELIYFVKKSAVFPYRWVLVQFGAFIVLCGATHLINLWTFTTHSRTVALVMTTAKVLTAVVSCATALMLVHIIPDLLSVKTRELFLKNKAAELDREMGLIRTQEETGRHVRMLTHEIRSTLDRHTILKTTLVELGRTLALEECALWMPTRTGLELQLSYTLRHQHPVEYTVPIQLPVINQVFGTSRAVKISPNSPVARLRPVSGKYMLGEVVAVRVPLLHLSNFQINDWPELSTKRYALMVLMLPSDSARQWHVHELELVEVVADQVAVALSHAAILEESMRARDLLMEQNVALDLARREAETAIRARNDFLAVMNHEMRTPMHAIIALSSLLQETELTPEQRLMVETILKSSNLLATLMNDVLDLSRLEDGSLQLELGTFNLHTLFREVLNLIKPIAVVKKLPITLNLAPDLPEFVVGDEKRLMQIILNIVGNAVKFSKQGSISVTALVTKSDTRAADFFVVPTGSHFYLRVKVKDSGAGINPQDIPKIFTKFAQTQSLATRSSGGSGLGLAISKRFVNLMEGNIWIESDGLGKGCTAIFDVKLGISERSNESKQSGIPKVPAIPRHSNFTGLKVLVMDENGVSRMVTKGLLVHLGCEVTTVSSNEECLRVVSHEHKVVFMDVCMPGVENYQIALRIHEKFTKQRHQRPLLVALSGNTDKSTKEKCMSFGLDGVLLKPVSLDNIRDVLSDLLEPRVLYEGM
notes: Ethylene receptor 1 (ETR1), Arabidopsis thaliana, full length, 738 residues, 82.5 kDa per monomer; Membrane protein, measured embedded in DMPC nanodiscs held by the scaffold protein MSP1E3D1 (His-tag cleaved by TEV); No cleavage of the ETR1 His-tag is described; the loaded nanodiscs were eluted from Ni-INDIGO beads by it just before SEC; also called ETR1_10xHis; ethylene receptor ETR1; source: E. …
stoichiometry N: 2
